US12618845B2, “Methods and compositions for protein sequencing” (Quantum-Si Incorporated, priority 2018, dated 2026)
Where two headings read alike, the source gives them in different places.

Legend:
[1] = test system: amino acid at a terminal position of a polypeptide; details: amino acid identity at a terminal position of a polypeptide; phospho-Y also at an internal position; cited from earlier work
[2] = test system: peptide substrates; type: biochemical; details: 1 mM peptide, 1 mM enzyme

B1: H. sapiens Fyn SH2 domain: amino acid recognition protein, SEQ ID NO: 22 (protein, listed as Homo sapiens)
chain: MGAMDSIQAEEWYFGKLGRKDAERQLLSFGNPRGTFLIRESETTKGAYSLSIRDWDDMKGDHVKHYKIRKLDNGGYYITTRAQFETLQQLVQHYSERAAGLSSRLVVPSHK
Binding Pref. [1]: phospho-Y

B2: P. falciparum M1 (protein, listed as Plasmodium falciparum)
chain: PKIHYRKDYKPSGFIINQVTLNINIHDQETIVRSVLDMDISKHNVGEDLVFDGVGLKINEISINNKKLVEGEEYTYDNEFLTIFSKFVPKSKFAFSSEVIIHPETNYALTGLYKSKNIIVSQCEATGFRRITFFIDRPDMMAKYDVTVTADKEKYPVLLSNGDKVNEFEIPGGRHGARFNDPPLKPCYLFAVVAGDLKHLSATYITKYTKKKVELYVFSEEKYVSKLQWALECLKKSMAFDEDYFGLEYDLSRLNLVAVSDFNVGAMENKGLNIFNANSLLASKKNSIDFSYARILTVVGHEYFHQYTGNRVTLRDWFQLTLKEGLTVHRENLFSEEMTKTVTTRLSHVDLLRSVQFLEDSSPLSHPIRPESYVSMENFYTTTVYDKGSEVMRMYLTILGEEYYKKGFDIYIKKNDGNTATCEDFNYAMEQAYKMKKADNSANLNQYLLWFSQSGTPHVSFKYNYDAEKKQYSIHVNQYTKPDENQKEKKPLFIPISVGLINPENGKEMISQTTLELTKESDTFVFNNIAVKPIPSLFRGFSAPVYIEDQLTDEERILLLKYDSDAFVRYNSCTNIYMKQILMNYNEFLKAKNEKLESFQLTPVNAQFIDAIKYLLEDPHADAGFKSYIVSLPQDRYIINFVSNLDTDVLADTKEYIYKQIGDKLNDVYYKMFKSLEAKADDLTYFNDESHVDFDQMNMRTLRNTLLSLLSKAQYPNILNEIIEHSKSPYPSNWLTSLSVSAYFDKYFELYDKTYKLSKDDELLLQEWLKTVSRSDRKDIYEILKKLENEVLKDSKNPNDIRAVYLPFTNNLRRFHDISGKGYKLIAEVITKTDKFNPMVATQLCEPFKLWNKLDTKRQELMLNEMNTMLQEPQISNNLKEYLLRLTNK
HPLC Assay Conv ([2]; substrate MetTyr, 2.5 mM ZnCl2 25 mM Tris pH 8.0, 30° C./1 hr): 7%

B3: Agrobacterium tumifaciens ClpS2: amino acid recognition protein, SEQ ID NO: 2 (protein, listed as Agrobacterium tumifaciens)
chain: MSDSPVDLKPKPKVKPKLERPKLYKVMLLNDDYTPREFVTVVLKAVFRMSEDTGRRVMMTAHRFGSAVVVVCERDIAETKAKEATDLGKEAGFPLMFTTEPEE
Binding Pref. [1]: F, W, Y

B4: Agrobacterium tumifaciens ClpS2 C71S: amino acid recognition protein, SEQ ID NO: 3 (protein, listed as Agrobacterium tumifaciens)
chain: MSDSPVDLKPKPKVKPKLERPKLYKVMLLNDDYTPREFVTVVLKAVFRMSEDTGRRVMMTAHRFGSAVVVVSERDIAETKAKEATDLGKEAGFPLMFTTEPEE
Binding Pref. [1]: F, W, Y

B5: P. horikoshii Tet (protein)
chain: MEVRNMVDYELLKKVVEAPGVSGYEFLGIRDVVIEEIKDYVDEVKVDKLGNVIAHKKGEGPKVMIAAHMDQIGLMVTHIEKNGFLRVAPIGGVDPKTLIAQRFKVWIDKGKFIYGVGASVPPHIQKPEDRKKAPDWDQIFIDIGAESKEEAEDMGVKIGTVITWDGRLERLGKHRFVSIAFDDRIAVYTILEVAKQLKDAKADVYFVATVQEEVGLRGARTSAFGIEPDYGFAIDVTIAADIPGTPEHKQVTHLGKGTAIKIMDRSVICHPTIVRWLEELAKKHEIPYQLEILLGGGTDAGAIHLTKAGVPTGALSVPARYIHSNTEVVDERDVDATVELMTKALENIHELKI
HPLC Assay Conv ([2]; substrate AAPAAP{LYSN3}NH2 (SEQ ID NO: 90), 2.5 mM ZnCl2, 25 mM Tris pH 8.0, 70° C./1 hr): 100% | HPLC Assay Conv ([2]; substrate DDMDDM{LYSN3}NH2 (SEQ ID NO: 72), 2.5 mM ZnCl2, 25 mM Tris pH 8.0, 70° C./1 hr): 60% | HPLC Assay Conv ([2]; substrate FFPFFP{LYSN3}NH2 (SEQ ID NO: 94), 2.5 mM ZnCl2, 25 mM Tris pH 8.0, 70° C./1 hr): 100% | HPLC Assay Conv ([2]; substrate YYPYYP{LYSN3}NH2 (SEQ ID NO: 92), 2.5 mM ZnCl2, 25 mM Tris pH 8.0, 70° C./1 hr): 100%
